US20230086069A1 (SYSTIMMUNE, published 2023)
Each block holds one binder with its values, some of them ahead of it.

Legend:
[1] = molecular target: T1, human CD19 on cells (CD20+ B cells of human PBMC; Raji lymphoma cells) (human, UniProt P15391 20-556); assay: flow cytometry, dose response on human CD20+ lymphocytes; human CD20+ lymphocytes
T1 construct: whole, on cells; also called Human CD20+
T1 sequence (looked up): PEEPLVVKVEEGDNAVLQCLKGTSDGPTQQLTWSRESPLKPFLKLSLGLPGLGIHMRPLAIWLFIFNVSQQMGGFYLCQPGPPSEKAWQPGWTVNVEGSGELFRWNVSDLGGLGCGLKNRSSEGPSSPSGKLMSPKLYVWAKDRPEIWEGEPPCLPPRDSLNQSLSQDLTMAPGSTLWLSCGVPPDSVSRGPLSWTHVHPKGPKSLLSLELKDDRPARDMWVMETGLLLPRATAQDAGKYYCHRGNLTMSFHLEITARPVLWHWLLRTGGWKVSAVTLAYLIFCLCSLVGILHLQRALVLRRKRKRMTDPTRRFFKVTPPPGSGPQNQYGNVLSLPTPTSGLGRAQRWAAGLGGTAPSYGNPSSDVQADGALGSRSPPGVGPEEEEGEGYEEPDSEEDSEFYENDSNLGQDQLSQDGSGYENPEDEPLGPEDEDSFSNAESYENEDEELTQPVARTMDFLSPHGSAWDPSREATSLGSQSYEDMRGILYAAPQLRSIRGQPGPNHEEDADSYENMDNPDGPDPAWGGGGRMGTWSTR
Experimental: (§1) To determine if the humanization alters the cross reactivity, the flow cytometry was carried out. The SI-63C2 antibody was used to bind the peripheral blood mononuclear cells derived from human, cynomolgus, and rhesus, respectively. Lymphocytes were gated based on forward and side scatter, followed by single cells based on the ratio of forward scatter signal height and area. Viable CD20+ B-cell and CD20− lymphocytes are gated based on the exclusion of membrane permeable amine reactive dye and the binding level of CD20 antibody (clone 2H7, Biolegend). Binding of the labelled antibody was determined as the geometric mean fluorescence intensity (gMFI) of the cell population for the fluorescent conjugate's emission channel. As shown in the histogram analysis in FIG. 4, the SI-63C2 antibody binds to CD20+ B cells from human, cynomolgus, and rhesus (4A) but not to their CD20− lymphocytes (4B).

[2] = molecular target: T2, human CD19 protein (R&D Biosystems Cat #9269-CD-050) (human, UniProt P15391 20-291); assay: BLI (Octet), antibody on anti-human Fc biosensor, human CD19 as analyte
T2 sequence (looked up): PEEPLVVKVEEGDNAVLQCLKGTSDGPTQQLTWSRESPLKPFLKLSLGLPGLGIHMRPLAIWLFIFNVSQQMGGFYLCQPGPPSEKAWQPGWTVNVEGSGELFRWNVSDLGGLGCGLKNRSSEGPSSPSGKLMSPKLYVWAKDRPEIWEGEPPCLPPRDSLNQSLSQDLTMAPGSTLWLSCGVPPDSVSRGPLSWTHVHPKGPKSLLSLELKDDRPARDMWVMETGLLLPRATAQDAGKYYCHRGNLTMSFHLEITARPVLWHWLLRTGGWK
Experimental: (§2) The purified SI-63C1, SI-63C2, and SI-34C1 antibodies were tested for their binding affinity using biolayer interferometry (ForteBio OctetRED 384). The antibodies were bound to anti-human Fc biosensors, and human CD19 protein (R&D Biosystems Cat #9269-CD-050) was used as the analyte in a 4-point series of 2-fold dilutions with the highest concentration starting at 200 nM.

[3] = molecular target: T3, cynomolgus CD19 on cells (CD20+ B cells of cynomolgus PBMC) (cynomolgus); assay: flow cytometry, dose response on cynomolgus CD20+ lymphocytes
T3 construct: whole, on cells; also called Cynomolgus CD20+
Experimental: as §1

[4] = molecular target: T4, rhesus CD19 on cells (CD20+ B cells of rhesus PBMC) (rhesus, UniProt F7F486 20-557); assay: flow cytometry, dose response on rhesus CD20+ lymphocytes
T4 construct: also called Rhesus CD20+
T4 sequence: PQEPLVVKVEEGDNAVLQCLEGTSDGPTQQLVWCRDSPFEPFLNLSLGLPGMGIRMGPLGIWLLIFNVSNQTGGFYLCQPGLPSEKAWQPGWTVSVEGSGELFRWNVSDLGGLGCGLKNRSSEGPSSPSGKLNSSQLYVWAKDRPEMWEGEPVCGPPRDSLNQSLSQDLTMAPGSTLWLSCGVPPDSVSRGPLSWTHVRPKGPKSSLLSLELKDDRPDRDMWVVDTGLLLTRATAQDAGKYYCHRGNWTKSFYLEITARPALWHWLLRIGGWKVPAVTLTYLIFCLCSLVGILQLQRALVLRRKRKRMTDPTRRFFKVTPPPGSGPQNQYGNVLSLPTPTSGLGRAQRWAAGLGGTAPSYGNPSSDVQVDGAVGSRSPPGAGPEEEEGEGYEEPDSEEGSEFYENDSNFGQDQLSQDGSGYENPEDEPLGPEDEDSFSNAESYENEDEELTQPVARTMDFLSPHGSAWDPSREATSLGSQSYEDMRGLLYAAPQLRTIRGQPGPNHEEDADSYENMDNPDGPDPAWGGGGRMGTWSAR
Experimental: as §1

[5] = molecular target: T2, human CD19 protein (R&D Biosystems Cat …); assay: BLI (Octet), antibody on anti-human Fc biosensors, CD19 protein as analyte; human CD19
Experimental: as §2

[6] = molecular target: T1, human CD19 on cells (CD20+ B cells of …); assay: flow cytometry, dose response on human CD20+ lymphocytes
Experimental: as §1

EC50 [1]: 0.0397 µg/mL
Kd [2]: 3.77 nM
koff [2]: 0.000229 s⁻¹
kon [2]: 60800 M⁻¹ s⁻¹
EC50 [3]: 2.9 µg/mL
EC50 [4]: 0.666 µg/mL
Kd [5]: 3.8 nM
B1: SI-63C2 (recombinant mAb with H1 humanized anti-CD19 variable sequence) (antibody, V domains shown)
VH: QVTLKESGPGLVQPGQTLRLTCAFSGFSLSTSGMGVGWIRQPPGKGLEWLAHIWWDDDKRYNPALKSRLTISKDTSKNQVYLQMNSLDAEDTAVYYCARMELWSYYFDYWGQGTLVTVSS
VL: ENVLTQSPASLSASPGERVTITCSASSSVSYMHWYQQKPGQAPKLWIYDTSKLASGVPSRFSGSGSGNDHTLTISSMEPEDFATYYCFQGSVYPFTFGQGTKLEIKR
notes: H1 VH/VL on human kappa and human IgG CH1-Fc; also called SI-huCD19; humanized BU12, H1

Kd [2]: 3.06 nM
koff [2]: 0.000209 s⁻¹
kon [2]: 68100 M⁻¹ s⁻¹
EC50 [3]: 0.909 µg/mL
EC50 [4]: 0.991 µg/mL
EC50 [6]: 0.231 µg/mL
B2: SI-63C1 (recombinant chimeric mAb with BU12 mouse parental anti-CD19 variable sequence) (antibody, V domains shown)
VH: QVTLKESGPGILQPSQTLSLTCSFSGFSLSTSGMGVGWIRQPSGKGLEWLAHIWWDDDKRYNPALKSRLTISKDTSSNQVFLKIASVDTADTAAYYCARMELWSYYFDYWGQGTTLTVSS
VL: ENVLTQSPAIMSASPGEKVTMTCSASSSVSYMHWYQQKSSTSPKLWIYDTSKLASGVPGRFSGSGSGNSHFLTISSMEAEDVATYYCFQGSVYPFTFGSGTKLEIKR
notes: Mouse BU12 variable regions on human kappa and human IgG CH1-Fc; also called BU12-chimeric; SI-63C1-AF647
